Reference: article PMC6168860, “Dual Role of a Viral Polymerase in Viral Genome Replication and Particle Self-Assembly” (mBio, 2018)
Where a chain is given by its changes, count along the chain named. In names and notes the source's numbering stands.

B1: Φ6 P2 surface mutant HER (histidine-tagged) (enzyme, Pseudomonas phage Φ6, UniProt P11124 1-665, looked up)
chain: MPRRAPAFPLSDIKAQMLFANNIKAQQASKRSFKEGAIETYEGLLSVDPRFLSFKNELSRYLTDHFPANVDEYGRVYGNGVRTNFFGMRHMNGFPMIPATWPLASNLKKRADADLADGPVSERDNLLFRAAVRLMFSDLEPVPLKIRKGSSTCIPYFSNDMGTKIEIAERALEKAEEAGNLMLQGKFDDAYQLHQMGGAYYVVYRAQSTDAITLDPKTGKFVSKDRMVADFEYAVTGGEQGSLFAASKDASRLKEQYGIDVPDGFFCERRRTAMGGPFALNAPIMAVAQPVRNKIYSKYAYTFHHTTRLNKEEKVKEWSLCVATDVSDHDTFWPGWLRDLICDELLNMGYAPWWVKLFETSLKLPVYVGAPAPEQGHTLLGDPSNPDLEVGLSSGQGATDLMGTLLMSITYLVMQLDHTAPHLNSRIKDMPSACRFLDSYWQGAQEIRQISKSDDAILGWTKGRALVGGHALFEMLKEGKVNPSPYMKISYEHGGAFLGDILLYDSRREPGSAIFVGNINSMLNNQFSPEYGVQSGVRDRSKRKRPFPGLAWASMKDTYGACPIYSDVLEAIERCWWNAFGESYRAYREDMLKRDTLELSRYVASMARQAGLAELTPIDLEVLADPNKLQYKWTEADVSANIHEVLMHGVSVEKTERFLRSVMPR
notes: RNA-dependent RNA polymerase P2 of Pseudomonas phage Φ6 with His443 to Ala, Glu444 to Gln and Arg470 to Ala, made from pEM33 (C-terminal hexahistidine tag); source: E. coli BL21(DE3), plasmid pXS29, purified as described for N-terminally histidine-tagged P2; not shown: His6, C-terminal, kept
B2: Φ6 P2 surface mutant HERW (histidine-tagged) (enzyme, Pseudomonas phage Φ6, UniProt P11124 1-665, looked up)
chain: B1 chain with W577A
notes: source: E. coli BL21(DE3), plasmid pXS30, purified as described for N-terminally histidine-tagged P2; not shown: His6, C-terminal, kept
B3: Φ6 P2 surface mutant W576A (histidine-tagged) (enzyme, Pseudomonas phage Φ6, UniProt P11124 1-665, looked up)
chain: B1 chain with A444H, Q445E, A471R, W577A
notes: RNA-dependent RNA polymerase P2 of Pseudomonas phage Φ6 with Trp576 to Ala, made from pEM33 (C-terminal hexahistidine tag); source: E. coli BL21(DE3), plasmid pXS28, purified as described for N-terminally histidine-tagged P2; not shown: His6, C-terminal, kept
B4: Pseudomonas phage Φ6 major capsid protein P1 (natural protein, UniProt P11126 1-769, looked up)
chain: MFNLKVKDLNGSARGLTQAFAIGELKNQLSVGALQLPLQFTRTFSASMTSELLWEVGKGNIDPVMYARLFFQYAQAGGALSVDELVNQFTEYHQSTACNPEIWRKLTAYITGSSNRAIKADAVGKVPPTAILEQLRTLAPSEHELFHHITTDFVCHVLSPLGFILPDAAYVYRVGRTATYPNFYALVDCVRASDLRRMLTALSSVDSKMLQATFKAKGALAPALISQHLANAATTAFERSRGNFDANAVVSSVLTILGRLWSPSTPKELDPSARLRNTNGIDQLRSNLALFIAYQDMVKQRGRAEVIFSDEELSSTIIPWFIEAMSEVSPFKLRPINETTSYIGQTSAIDHMGQPSHVVVYEDWQFAKEITAFTPVKLANNSNQRFLDVEPGISDRMSATLAPIGNTFAVSAFVKNRTAVYEAVSQRGTVNSNGAEMTLGFPSVVERDYALDRDPMVAIAALRTGIVDESLEARASNDLKRSMFNYYAAVMHYAVAHNPEVVVSEHQGVAAEQGSLYLVWNVRTELRIPVGYNAIEGGSIRTPEPLEAIAYNKPIQPSEVLQAKVLDLANHTTSIHIWPWHEASTEFAYEDAYSVTIRNKRYTAEVKEFELLGLGQRRERVRILKPTVAHAIIQMWYSWFVEDDRTLAAARRTSRDDAEKLAIDGRRMQNAVTLLRKIEMIGTTGIGASAVHLAQSRIVDQMAGRGLIDDSSDLHVGINRHRIRIWAGLAVLQMMGLLSRSEAEALTKVLGDSNALGMVVATTDIDPSL
notes: major capsid protein P1 of Pseudomonas phage Φ6, wild type; The shell holds 120 copies of P1 (60 asymmetric P1A/P1B dimers) by the introduction; In the recombinant PCs of a11 P1 was co-expressed from pLM687 in E. coli JM109; also called main structural P1 protein; P1 shell; source: E. coli JM109, P1P4 particles from plasmid pLM358, P1 purified as previously described

How the values were obtained:
[1] = biological target: B4; assay: co-sedimentation; in vitro self-assembly of purified P1, P4 (120:72) and P2 or P2 variant at 10×P2 (P1:P2 120:120), no P7; room temperature, 90 min, 250 to 350 mM NaCl, 20 mM Tris pH 8.0, 6% PEG 4000; rate-zonal centrifugation in 10% to 30% sucrose, P2 copies per particle from SDS-PAGE; conditions: both partners purified
[2] = biological target: the molecule itself; assay: co-sedimentation; in vitro self-assembly of purified P1 and P4 (120:72), no P2, no P7 (P1P4 reaction); room temperature, 90 min, 250 to 350 mM NaCl, 20 mM Tris pH 8.0, 6% PEG 4000, P1 about 0.2 mg/ml; rate-zonal centrifugation in 10% to 30% sucrose, light-scattering zones analysed by SDS-PAGE

B1
copies of P2 variant per particle [1]: 6 copies per particle

B2
copies of P2 variant per particle [1]: 4 copies per particle

B3
copies of P2 variant per particle [1]: 12 copies per particle

B4
binding result [2]: binds
